The conditions of this data set: Escherichia coli (strain K12), Thermal, DSC, KH2PO4-KOH 10 mM, reversible: no, whole UniProt chain shown.

Broadly, the Tm is the temperature at the midpoint of the melting transition.

B1: Glyceraldehyde-3-phosphate dehydrogenase A wild type, P0A9B2 (protein)
chain: MTIKVGINGFGRIGRIVFRAAQKRSDIEIVAINDLLDADYMAYMLKYDSTHGRFDGTVEVKDGHLIVNGKKIRVTAERDPANLKWDEVGVDVVAEATGLFLTDETARKHITAGAKKVVMTGPSKDNTPMFVKGANFDKYAGQDIVSNASCTTNCLAPLAKVINDNFGIIEGLMTTVHATTATQKTVDGPSHKDWRGGRGASQNIIPSSTGAAKAVGKVLPELNGKLTGMAFRVPTPNVSVVDLTVRLEKAATYEQIKAAVKAAAEGEMKGVLGYTEDDVVSTDFNGEVCTSVFDAKAGIALNDNFVKLVSWYDNETGYSNKVLDLIAHISK
For the protein B1, for the setting “pH 6”, the Tm turned out to be 75.3 °C and the “unfolding enthalpy (calorimetric)” value was 908 kcal/mol. For the same protein, for the setting “pH 8”, the Tm turned out to be 72.6 °C and the “unfolding enthalpy (calorimetric)” value came to 1080 kcal/mol.

Source of the values: FireProtDB (doi:10.1016/s0167-4838(99)00132-6).
